Test results: the supplement of paper PMC10567573

B1: ZNF263 (parent)
chain: HLTRHQRTHTGEKPYKCTLCGENF

Variants of: B1
Assay: protein stability index of a GFP-peptide fusion (GPS, HEK-293T) (PSI 1-6); higher = more stable
Conditions: c terminus: a fixed tail appended
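Further: lentivirally expressed fusions sorted by FACS into six bins by GFP to DsRed ratio, PSI derived from sequencing read proportions per bin multiplied by bin number.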

| Variant | protein stability index |
| --- | --- |
| HLTRHQRTHTGEKPYKCTYCGENF [L19Y] | 2.39 |
| HLTRHQRTHTGEKPYKCTRCGENF [L19R] | 3.03 |
| HLTRHQRTHTGEKPYKCTICGENF [L19I] | 3.15 |
| HLTRHQRTHTGEKPYKCTPCGENF [L19P] | 2.7 |
| HLTRHQRTHTGEKPYKCTGCGENF [L19G] | 2.56 |
| HLTRHQRTHTGEKPYKCTDCGENF [L19D] | 3.84 |
| HLTRHQRTHTGEKPYKCTMCGENF [L19M] | 2.83 |
| HLTRHQRTHTGEKPYKCTNCGENF [L19N] | 3.68 |
| HLTRHQRTHTGEKPYKCTWCGENF [L19W] | 2.75 |
| HLTRHQRTHTGEKPYKCTFCGENF [L19F] | 2.62 |
| HLTRHQRTHTGEKPYKCTCCGENF [L19C] | 3.88 |
| HLTRHQRTHTGEKPYKCTSCGENF [L19S] | 3.14 |
| HLTRHQRTHTGEKPYKCTTCGENF [L19T] | 3.64 |
| HLTRHQRTHTGEKPYKCTACGENF [L19A] | 3.23 |
| HLTRHQRTHTGEKPYKCTQCGENF [L19Q] | 2.98 |
| HLTRHQRTHTGEKPYKCTVCGENF [L19V] | 2.86 |
| HLTRHQRTHTGEKPYKCTECGENF [L19E] | 3.36 |
| HLTRHQRTHTGEKPYKCTKCGENF [L19K] | 3.7 |
| HLTRHQRTHTGEKPYKCTHCGENF [L19H] | 2.94 |
| HLTRHQRTHTGEKPYKCFLCGENF [T18F] | 2.56 |
| HLTRHQRTHTGEKPYKCRLCGENF [T18R] | 2.68 |
| HLTRHQRTHTGEKPYKCDLCGENF [T18D] | 2.75 |
| HLTRHQRTHTGEKPYKCILCGENF [T18I] | 2.36 |
| HLTRHQRTHTGEKPYKCNLCGENF [T18N] | 2.81 |

| Variant | protein stability index |
| --- | --- |
| HLTRHQRTHTGEKPYKCELCGENF [T18E] | 3.78 |
| HLTRHQRTHTGEKPYKCYLCGENF [T18Y] | 3.09 |
| HLTRHQRTHTGEKPYKCCLCGENF [T18C] | 2.54 |
| HLTRHQRTHTGEKPYKCQLCGENF [T18Q] | 2.68 |
| HLTRHQRTHTGEKPYKCWLCGENF [T18W] | 2.54 |
| HLTRHQRTHTGEKPYKCALCGENF [T18A] | 2.94 |
| HLTRHQRTHTGEKPYKCGLCGENF [T18G] | 2.45 |
| HLTRHQRTHTGEKPYKCVLCGENF [T18V] | 2.42 |
| HLTRHQRTHTGEKPYKCSLCGENF [T18S] | 2.84 |
| HLTRHQRTHTGEKPYKCKLCGENF [T18K] | 2.98 |
| HLTRHQRTHTGEKPYKCPLCGENF [T18P] | 2.4 |
| HLTRHQRTHTGEKPYKCLLCGENF [T18L] | 2.49 |
| HLTRHQRTHTGEKPYKCMLCGENF [T18M] | 2.42 |
| HLTRHQRTHTGEKPYKCHLCGENF [T18H] | 2.65 |
| HLTRHQRTHTGEKGYKCTLCGENF [P14G] | 3.58 |
| HLTRHQRTHTGEKKYKCTLCGENF [P14K] | 3.31 |
| HLTRHQRTHTGEKHYKCTLCGENF [P14H] | 3.01 |
| HLTRHQRTHTGEKLYKCTLCGENF [P14L] | 3.14 |
| HLTRHQRTHTGEKYYKCTLCGENF [P14Y] | 3.04 |
| HLTRHQRTHTGEKMYKCTLCGENF [P14M] | 2.63 |
| HLTRHQRTHTGEKFYKCTLCGENF [P14F] | 2.78 |
| HLTRHQRTHTGEKVYKCTLCGENF [P14V] | 2.77 |
| HLTRHQRTHTGEKCYKCTLCGENF [P14C] | 2.52 |
| HLTRHQRTHTGEKWYKCTLCGENF [P14W] | 3.26 |

| Variant | protein stability index |
| --- | --- |
| HLTRHQRTHTGEKDYKCTLCGENF [P14D] | 3.65 |
| HLTRHQRTHTGEKIYKCTLCGENF [P14I] | 2.9 |
| HLTRHQRTHTGEKNYKCTLCGENF [P14N] | 2.92 |
| HLTRHQRTHTGEKQYKCTLCGENF [P14Q] | 3.14 |
| HLTRHQRTHTGEKRYKCTLCGENF [P14R] | 2.9 |
| HLTRHQRTHTGEKEYKCTLCGENF [P14E] | 3.21 |
| HLTRHQRTHTGEKAYKCTLCGENF [P14A] | 2.79 |
| HLTRHQRTHTGEKTYKCTLCGENF [P14T] | 2.88 |
| HLTRHQRTHTGEKSYKCTLCGENF [P14S] | 2.79 |
| HLTRHQRTHTGEKPRKCTLCGENF [Y15R] | 2.93 |
| HLTRHQRTHTGEKPIKCTLCGENF [Y15I] | 2.85 |
| HLTRHQRTHTGEKPWKCTLCGENF [Y15W] | 2.46 |
| HLTRHQRTHTGEKPNKCTLCGENF [Y15N] | 3.29 |
| HLTRHQRTHTGEKPAKCTLCGENF [Y15A] | 3.23 |
| HLTRHQRTHTGEKPTKCTLCGENF [Y15T] | 3 |
| HLTRHQRTHTGEKPVKCTLCGENF [Y15V] | 3.22 |
| HLTRHQRTHTGEKPDKCTLCGENF [Y15D] | 4.21 |
| HLTRHQRTHTGEKPCKCTLCGENF [Y15C] | 4.52 |
| HLTRHQRTHTGEKPSKCTLCGENF [Y15S] | 3.48 |
| HLTRHQRTHTGEKPGKCTLCGENF [Y15G] | 3.29 |
| HLTRHQRTHTGEKPEKCTLCGENF [Y15E] | 3.69 |
| HLTRHQRTHTGEKPFKCTLCGENF [Y15F] | 3.31 |
| HLTRHQRTHTGEKPLKCTLCGENF [Y15L] | 2.81 |
| HLTRHQRTHTGEKPHKCTLCGENF [Y15H] | 3.24 |

| Variant | protein stability index |
| --- | --- |
| HLTRHQRTHTGEKPMKCTLCGENF [Y15M] | 3.18 |
| HLTRHQRTHTGEKPQKCTLCGENF [Y15Q] | 3.44 |
| HLTRHQRTHTGEKPPKCTLCGENF [Y15P] | 3.1 |
| HLTRHQRTHTGEKPKKCTLCGENF [Y15K] | 3.11 |
| HLTRHQRTHTGEKPYKITLCGENF [C17I] | 2.21 |
| HLTRHQRTHTGEKPYKDTLCGENF [C17D] | 3.73 |
| HLTRHQRTHTGEKPYKYTLCGENF [C17Y] | 3.05 |
| HLTRHQRTHTGEKPYKPTLCGENF [C17P] | 3.37 |
| HLTRHQRTHTGEKPYKETLCGENF [C17E] | 3.96 |
| HLTRHQRTHTGEKPYKRTLCGENF [C17R] | 2.98 |
| HLTRHQRTHTGEKPYKGTLCGENF [C17G] | 3.52 |
| HLTRHQRTHTGEKPYKVTLCGENF [C17V] | 3.7 |
| HLTRHQRTHTGEKPYKNTLCGENF [C17N] | 3.1 |
| HLTRHQRTHTGEKPYKTTLCGENF [C17T] | 3.06 |
| HLTRHQRTHTGEKPYKQTLCGENF [C17Q] | 3.46 |
| HLTRHQRTHTGEKPYKMTLCGENF [C17M] | 2.81 |
| HLTRHQRTHTGEKPYKKTLCGENF [C17K] | 3.71 |
| HLTRHQRTHTGEKPYKSTLCGENF [C17S] | 3.4 |
| HLTRHQRTHTGEKPYKFTLCGENF [C17F] | 2.44 |
| HLTRHQRTHTGEKPYKHTLCGENF [C17H] | 2.89 |
| HLTRHQRTHTGEKPYKATLCGENF [C17A] | 3.24 |
| HLTRHQRTHTGEKPYKLTLCGENF [C17L] | 2.68 |
